Laboratory results as given in publication PMC3401474.

B1: B1 (XNA)
RNA: GGGAGGACGAUGCGGUCUGUUGUGCUUGAUAUGCCCCAGACGACUCGCCCGA
modifications: 2'-fluoro C and U (2'-OH A and G)
B2: E1 (XNA)
RNA: GGGAGGACGAUGCGGUCCUGUCGUCUGUUCGUCCCCAGACGACUCGCCCGA
modifications: 2'-fluoro C and U (2'-OH A and G)
B3: C1 (XNA)
RNA: GGGAGGACGAUGCGGCUGUCUACCUUCUACUGCCGCAGACGACUCGCCCGA
modifications: 2'-fluoro C and U (2'-OH A and G)

Experiments:
Assay in all cases: SPR
rat HER2 (rHER2) = rat HER2 (rHER2) (rat, UniProt P06494 23-654)
human HER2 (hHER2) = human HER2 (hHER2) (human, UniProt P04626 23-652)
human EphA2 (hEphA2) = human EphA2 (hEphA2) (human, UniProt P29317 24-537)
Chain of human EphA2 (hEphA2) (P29317 24-537): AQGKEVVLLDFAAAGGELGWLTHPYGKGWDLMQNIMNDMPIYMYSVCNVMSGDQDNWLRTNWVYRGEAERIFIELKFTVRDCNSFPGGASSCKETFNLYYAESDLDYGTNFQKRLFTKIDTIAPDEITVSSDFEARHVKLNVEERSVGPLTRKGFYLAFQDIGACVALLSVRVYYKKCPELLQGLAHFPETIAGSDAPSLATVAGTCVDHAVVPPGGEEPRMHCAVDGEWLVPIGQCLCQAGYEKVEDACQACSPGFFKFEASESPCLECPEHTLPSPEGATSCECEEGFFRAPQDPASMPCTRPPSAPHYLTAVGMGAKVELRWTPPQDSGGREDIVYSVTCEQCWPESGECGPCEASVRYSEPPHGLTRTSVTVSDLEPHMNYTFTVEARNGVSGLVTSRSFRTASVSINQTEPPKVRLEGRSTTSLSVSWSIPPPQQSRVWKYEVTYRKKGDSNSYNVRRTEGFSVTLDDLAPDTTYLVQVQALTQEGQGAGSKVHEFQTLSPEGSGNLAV

Chain of rat HER2 (rHER2) (P06494 23-654): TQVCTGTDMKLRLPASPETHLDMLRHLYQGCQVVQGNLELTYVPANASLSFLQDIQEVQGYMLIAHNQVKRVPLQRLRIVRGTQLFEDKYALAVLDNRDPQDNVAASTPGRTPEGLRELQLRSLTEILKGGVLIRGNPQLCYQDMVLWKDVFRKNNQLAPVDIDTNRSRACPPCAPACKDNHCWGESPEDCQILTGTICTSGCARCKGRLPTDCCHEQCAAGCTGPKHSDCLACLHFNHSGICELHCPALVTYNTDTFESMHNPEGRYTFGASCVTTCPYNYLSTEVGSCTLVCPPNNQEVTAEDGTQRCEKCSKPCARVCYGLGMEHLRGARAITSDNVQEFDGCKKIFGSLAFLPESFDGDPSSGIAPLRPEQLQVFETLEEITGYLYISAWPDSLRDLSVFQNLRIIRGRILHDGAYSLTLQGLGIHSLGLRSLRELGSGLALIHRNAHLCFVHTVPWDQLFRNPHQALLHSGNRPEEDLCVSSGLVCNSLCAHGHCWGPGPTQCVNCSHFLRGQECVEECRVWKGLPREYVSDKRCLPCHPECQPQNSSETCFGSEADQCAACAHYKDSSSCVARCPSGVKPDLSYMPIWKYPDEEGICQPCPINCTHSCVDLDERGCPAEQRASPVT

Binder	Kd (rat HER2 (rHER2)) [nM]	binding result (human HER2 (hHER2))	binding result (human EphA2 (hEphA2))
B1	85.2	no binding	no binding
B2	60.8		
B3	45.8	no binding	no binding
